Test results taken from US20220281973A1 (TRUEBINDING, published 2022).
Numbering of substitutions follows the chain as printed.

Tests used:
[1] = molecular target: T1, human LRIG1 extracellular domain fused to a linker-spaced 6-histidine tag, LRIG1-ECD-His (R&D systems, … (human, UniProt Q96JA1 35-794)); assay: LRIG1 ECD ELISA-positive hybridoma antibodies tested in blocking ELISA on plate-bound LRIG1-ECD-His
T1 construct: Bought protein; also called human LRIG1-His; hLRIG1-His; not shown: linker-spaced 6-histidine tag
T1 sequence: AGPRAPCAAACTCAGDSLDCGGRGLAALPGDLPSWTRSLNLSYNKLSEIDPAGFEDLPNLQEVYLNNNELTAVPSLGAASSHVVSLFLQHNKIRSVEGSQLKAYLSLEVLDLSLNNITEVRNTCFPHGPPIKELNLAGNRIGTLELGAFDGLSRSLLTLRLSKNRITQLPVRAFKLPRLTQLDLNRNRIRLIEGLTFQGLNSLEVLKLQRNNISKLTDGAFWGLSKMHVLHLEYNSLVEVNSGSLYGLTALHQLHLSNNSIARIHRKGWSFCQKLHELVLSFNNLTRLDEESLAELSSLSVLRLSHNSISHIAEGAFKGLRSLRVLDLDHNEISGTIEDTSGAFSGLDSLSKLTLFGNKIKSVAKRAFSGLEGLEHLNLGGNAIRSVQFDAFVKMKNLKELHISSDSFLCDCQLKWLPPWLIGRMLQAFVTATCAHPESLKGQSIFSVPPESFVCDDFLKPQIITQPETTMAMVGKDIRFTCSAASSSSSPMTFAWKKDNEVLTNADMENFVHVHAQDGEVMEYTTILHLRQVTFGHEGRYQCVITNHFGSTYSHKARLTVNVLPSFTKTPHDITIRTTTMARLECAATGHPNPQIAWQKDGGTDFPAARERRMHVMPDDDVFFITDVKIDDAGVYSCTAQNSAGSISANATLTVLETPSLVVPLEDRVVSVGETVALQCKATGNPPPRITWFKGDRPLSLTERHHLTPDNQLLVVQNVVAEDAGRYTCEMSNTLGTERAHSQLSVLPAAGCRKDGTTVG
Protocol: Positively scoring wells were evaluated for the ability to block association of LRIG1 and VISTA. To identify LRIG1-targeted antibodies with the ability to block the interaction of LRIG1 and VISTA, purified LRIG1 and VISTA proteins were incubated in the presence of LRIG1-immunization hybridoma supernatants described above, or without antibody, and protein interaction was evaluated by ELISA. Purified human LRIG1 extracellular domain fused to a HIS tag (R&D Systems) was diluted in phosphate buffered saline (PBS) (Corning) to a concentration of 3 μg/ml and 100 μl was added to each well of a 96-well ELISA plate (Thermo Fisher, 44-2404-21). After incubating the plate at 4° C. overnight, the plate was washed three times with 300 μl of PBS with 0.05% TWEEN (VWR) (PBST) per well. The plate was then blocked for an hour with 200 μl of 2% bovine serum albumin (BSA) (Sigma) in PBST per well at room temperature with gentle rocking. Thereafter, the 2% BSA in PBST was removed and 50 μl of hybridoma supernatant diluted to 3.3 ug/mL was added to the wells. The plate was incubated for 10 minutes at room temperature with gentle rocking. Afterwards, 100 ul of 50 nM oligomerized VISTA in 100 ul PBS buffer was added per well. VISTA oligomerization was performed by Klickmer formation. Briefly, 5 nM Klickmer (Immudex) was incubated with 200 nM hVISTA-Fc-Avi-Biotin in PBS and incubated for one hour. The plate was incubated for an hour at room temperature with gentle rocking. Thereafter, the plate was washed three times with 300 μl of PBST per well, and 100 μl of avidin-HRP (1:1000) (Jackson ImmunoResearch) was then added to each well and the plate was incubated at room temperature for 30 minutes with gentle rocking. Thereafter, the plate was washed three times with 300 μl of PBST per well. 100 μl of TMB substrate (Fisher Scientific, 34029) was then added to each well. The reaction was stopped with 50 μl of 1 M HCl (VWR) per well. The plate was read using a spectrophotometer (Molecular Devices) at absorbance of 450 nm. Percent blockade of LRIG1-VISTA interaction was calculated as the fraction of signal obtained in each experimental samples of the no antibody sample less background signal.

hLRIG1 Peptide 71 = molecular target: T2, hLRIG1 Peptide 71 (human); assay: peptide ELISA of Example 2, as told in Example 3
T2 construct: 20 amino acid peptide of the LRIG1 peptide library
T2 peptide: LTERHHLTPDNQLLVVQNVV
Protocol: (§1) To identify the epitopes to which LRIG1 antibodies with and without VISTA-LRIG1 blocking activity bound, a library of 20 amino acid peptides representing portions of LRIG1 was produced, and the ability to bind LRIG1 antibodies was evaluated by ELISA. At least 2 ug/ml of hLRIG1 peptide in 50 μl of PBS or 0.1 ug/ml of full-length human LRIG1 protein (R&D Systems) in 100 μl of PBS was added to the wells of a 96-well ELISA plate (Thermo Fisher, 44-2404-21). After incubating the plate at 4° C. overnight, the plate was washed three times with 300 μl of PBST per well. The plate was then blocked for an hour with 200 μl of 2% BSA in PBST per well at room temperature with gentle rocking. Thereafter, the 2% BSA in PBST was removed and 100 μl of 0.1 ug/ml of antibody in 2% BSA in PBST was added to the wells. The plate was incubated for an hour at room temperature with gentle rocking and then washed three times with 300 μl of PBST per well. Afterwards, 100 μl of anti-mouse IgG-HRP (1:4000) (Jackson ImmunoResearch) or anti-rat IgG HRP (1:4000) (Jackson ImmunoResearch) was added to the wells. The plate was incubated for 30 minutes at room temperature with gentle rocking and then washed three times with 300 μl of PBST per well. 100 μl of TMB substrate (Fisher Scientific, 34029) was then added to each well. The reaction was stopped with 50 μl of 1 M HCl (VWR) per well. The plate was read using a plate reader (Molecular Devices) at absorbance of 450 nm, and signal greater than 0.25 OD was considered evidence of peptide binding.

hLRIG1 Peptide 70 = molecular target: T3, hLRIG1 Peptide 70 (human); assay: peptide ELISA of Example 2, as told in Example 3
T3 construct: 20 amino acid peptide of the LRIG1 peptide library
T3 peptide: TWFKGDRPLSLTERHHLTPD
Protocol: as §1

B1: 802.2F4.2C7 (antibody, V domains shown)
VH: EVQLQQSGTVLARPGASVKMSCKASGYNFINSWMHWVKQRPGQGLEWIGAFYPGNSDTRYNQKFMGKAKLTAVTSASTAYMEVSSLTNEDSAVYYCTELGGDYWGQGTTLTVSS
VL: DVVMTQTPLSLPVSLGDQASISCRSSQSLVHNDGNTYLHWFLQKPGQSPKLLIHKVSNRFSGVPDRFSGSGSGTDFTLKISRVEAEDLGVYFCSQSTHVPYTFGGGTKLEIK
notes: Mouse hybridoma monoclonal
B1: binds [1].

B2: 802.1H3.2A4 (antibody, V domains shown)
VH: QVQLQQPGDELVKPGASVKLSCKASGYTFTSFWIHWVKQRPGQGLEWIGNIYPGSSSANYNEKFKSKATLTVDTSSSTAYMQLSSLTSDDSAVYYCARSSYRYSYYSWGQGTTLTVSS
VL: DVVMTQTPLSLPVSLGDQASISCRSSQSIVHSNGNTFLEWYLQKPGQSPNLLIYKVSNRFSGVPDRFSGSGSGTDFTLKISRVEAEDLGVYYCFQGSHVPLSFGAGTKLELK
notes: Mouse hybridoma monoclonal
B2: binds [1].

B3: 802.4B6.2E11 (antibody, V domains shown)
VH: B2 VH with G8D, D9T, K23R, F32Y, H35N, S55T, A58T, T74P, A97S, S104T
VL: B2 VL with H31Q, N35I, F37Y, Q43K, F60L, E86D, S102T
notes: Mouse hybridoma monoclonal
B3: binds [1].

B4: 802.4H12.2A9 (antibody, V domains shown)
VH: EVQLVESGGGLVKPGGSLKLSCAASGFTFSSYTMSWVRQTPEKTLEWVATISDGGRYTYYPDNVKGRFTISRDNANNNLYLQMSHLKSEDTAMYYCARGWLLRNFDFWGQGTTLTVSS
VL: B2 VL with F37Y, N50K, S102T
notes: Mouse hybridoma monoclonal
B4: binds [1]; binds (hLRIG1 Peptide 71); binds (hLRIG1 Peptide 70).

B5: 802.4C12.3C5 (antibody, V domains shown)
VH: QVQLQQSGGELMKPGASVKLSCKATGYTFTGYWIEWVKQRPGHGLEWIGEILPGSGRTYYNEKFKGKATFTADTSSNTAYMQLSSLTTEDSAIYYCAREIYDGHYEAWYAYWGQGTLVTVSA
VL: DVVMTQTPLSLSVTIGQPASISCKSSQSLLYSDGKTYLNWLQQRPGQSPKRLMYQVSKLDPGIPDRFSGSGSETDFTLEISRVEAEDLGVYYCLQGTYYPHTFGSGTKLEIK
notes: Mouse hybridoma monoclonal
B5: binds [1].

B6: 802.2F11.2B6 (antibody, V domains shown)
VH: QVQLQQSGAELMKPGASVKLSCKATGYTFTGYWIEWVKQRPGHGLEWIGEILPGSGSTHYNEKFKGKATFTADTSSNTAYIQLSSLTTEDSAIYYCEREVYDNDEGAWFANWGQGTLVTVSA
VL: B5 VL with E79K
notes: Mouse hybridoma monoclonal
B6: binds [1].

B7: 802.2B7.2D9 (antibody, V domains shown)
VH: QVQLKQSGPGLVQPSQSLSITCTVSGFSLTSYGVHWVRQSPGKGLEYLGVIWSGGSTDYNAAFISRLSISKDNSKSQVFFKMNSLRADDTAIYYCARNWAYYSNHYYVMDYWGQGTSVTVSS
VL: DIQMTQSPASLYAFVGETVTITCRASENIYSYLAWYHQKQGKSPQLLVYNSNSLAEGVPLRFSGSGSGTQFSLKINSLQPEDFGNYYCQHHYVTPLTFGGGTKLEMK
notes: Mouse hybridoma monoclonal
B7: binds [1].

B8: 802.2B7.2F9 (antibody, V domains shown)
VH: EVQLVESGGGLAKPGGSLKLSCAASGFTFSASAMSWVRQTPEKRLEWVATISDGGSYTYYPDNVKGRFTISRDNAKSNLYLQMSHLKSEDTAMYYCAGGVSTVINFDYWGQGTTLTVSS
VL: B2 VL with A19V, F37Y, N50K, S102T, A105G
notes: Mouse hybridoma monoclonal
B8: binds [1]; binds (hLRIG1 Peptide 71); binds (hLRIG1 Peptide 70).

B9: 802.3D5.2G4 (antibody, V domains shown)
VH: EVKLEESGGGLVQPGGSMTLSCVASGFTFSNYWVNWVRQSPEKGLEWVAQIRLKSENYPTHYAESVKGRFTVSRDDSKSSVYLQMNNLRAEDTGIYYCTGRGYSNYAWGQGTTLTVSS
VL: B2 VL with V2I, F37Y, N50K, V99F, L101W, S102T, A105G, L111I
notes: Mouse hybridoma monoclonal
B9: binds [1].

B10: 802.4B6.2F6 (antibody, V domains shown)
VH: QVQLQQSGPELVKPGASVKLSCKASGYTFTSYDINWVKQRPGQGLEWIGWIYPRDGTTKYNEKFKGKATLTVDTSSSTAYMEIHSLTSEDSAVYFCAREDYGSSFHNWGQGTTLTVSS
VL: NIVMTQSPKSMSMSVGERVTLSCKASEDVDTYVSWYQQKPNQSPKLLIYGASNRYTGVPDRFTGSGSATDFTLTISSVQAEDLADYYCGQSYSYPWTFGGGTKLEIK
notes: Mouse hybridoma monoclonal
B10: binds [1].

B11: 802.3E6.2F9 (antibody, V domains shown)
VH: QVQLQQSGAELMKPGASVKISCKVTGHTFSSYWIEWVKQRPGHGLEWIGEILPGKGNTEYNEKFKGKATFTADTSSNTAYMQLSSLTSEDSAVYYCARNFDVWGAGTTVTVSS
VL: B1 VL with N32R, D33N, N35H, F41Y, H54Y, G71V, A85G, L88V
notes: Mouse hybridoma monoclonal
B11: binds [1].

B12: 802.3E6.2H9 (antibody, V domains shown)
VH: QVQKQQPGAELVMPGASVKLSCKASGYTFTSYWMHWVMQRPGQGLEWIGDIDPSDSYTNYNQQFKGKATLTVDISSSSAYMQLSSLTFEDSAVYYCARARVDFDYWGRGTTLTVSS
VL: EIVLTQSPALLAASPGDKVTITCSVSSSISSSTLHWYQQKSGTSPKPWIYGTSNLASGVPVRFSGSGSGTSYSLTISSMEAEDAATYYCQQWSGYPLTFGAGTKLELK
notes: Mouse hybridoma monoclonal
B12: binds [1].

B13: 802.3B10.2C10 (antibody, V domains shown)
VH: DVQLQESGPGLVKPSLSLSLTCTVTGYSITSGYDWHWIRHFPGNILEWMGYISYSGYTNYNPSLKSRISITHDTSKNHFFLKLNSVTTEDTATYYCARDSNWYFDVWGAGTTVTVSS
VL: B10 VL with S14L, T20I, S22N, D28N, N41E, A80G, Y92H, S93N, W96Y, G100S
notes: Mouse hybridoma monoclonal
B13: binds [1].
